This test deals with Multidrug transporter EmrE (Escherichia coli (strain K12)) (Escherichia coli (strain K12)) (UniProt P23895). In words: cell-based or functional assay.
Chain of UniProt P23895 (P23895 whole entry): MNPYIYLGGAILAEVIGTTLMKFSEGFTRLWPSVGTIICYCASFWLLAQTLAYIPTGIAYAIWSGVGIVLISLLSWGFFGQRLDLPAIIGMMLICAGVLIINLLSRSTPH
Substance A87-I94 (peptide) displayed an inhibition of ethidium bromide efflux from E. coli K12 cells (fluorescence decay), peptide 4 uM of 60%.
The same measure for I89-A96 (peptide): 26%.
The same measure for M92-L99 (peptide): 68%.

(Values after US20200317736A1.)
